Assay [1] addresses T1, bio-huCD38 (human (hu), UniProt P28907 43-300, biotinylated (bio-), site not stated). Briefly: SPR, antibody captured on chip, antigen as analyte 200-6.25 nM. The method, then: (§1) SPR analysis was performed on a Biocore 8K+, using a CFJB0944 CM5 sensor chip for immobilization and a SPR running buffer 1×HBS-EP+pH 7.4 (Cytiva, cat no. BR100669) according to the manufacturer's instructions.
In the first part of this example the antibody was immobilized on the chip and the antigen dissolved in the SPR running buffer flowed over the chip.
(In general: Surface plasmon resonance follows binding to a sensor surface in real time, without labels.)

For assay [2], the target named is T1, bio-huCD38. In words: SPR, antigen immobilized, antibody as analyte 50-3.1 nM. The method, then:
as §1
(§2) In the second part of this example, antigen was immobilized on the chip and antibody dissolved in the SPR running buffer flowed over the chip.

Assay [3] deals with T2, CD38 on Daudi cells (UniProt P28907 1-300, limits assumed).
T2 construct: whole, on cells
Briefly: titration binding FACS on Daudi cells. The method, then: (§3) Subsequently the EC50 of antibodies samples was determined by titration binding FACS on Daudi cells (for CD38 binding evaluation), on THP-1 cells (for CD33 binding evaluation), on A-431 cells (for EGFR binding evaluation), on MKN-45 cells (for CEACAMS binding evaluation) and on HEK293T (for CD276 binding evaluation). Jurkat E6-1 or HEK293T cell lines were used as negative control, as applicable.

Assay [4] deals with T1, bio-huCD38. Briefly: SPR, antigen immobilized, antibody as analyte 25-1.6 nM; estimated from ka and the limit kd, indicative. The method, then:
as §1, §2

The target in assay [5] is T1, bio-huCD38. Briefly: SPR, antigen immobilized, antibody as analyte 25-1.6 nM. The method, then: as §1, §2
Assay [6] deals with T1, bio-huCD38. In words: SPR, antigen immobilized, antibody as analyte 25-1.6 nM; at the instrument's limit.
For assay [7], the target named is T1, bio-huCD38. Briefly: SPR (Biacore 8K+), immobilized antigen.
Assay [8] addresses T3, CD276 on HEK293T cells (UniProt Q5ZPR3 29-534, limits assumed).
T3 construct: whole, on cells
T3 sequence (looked up): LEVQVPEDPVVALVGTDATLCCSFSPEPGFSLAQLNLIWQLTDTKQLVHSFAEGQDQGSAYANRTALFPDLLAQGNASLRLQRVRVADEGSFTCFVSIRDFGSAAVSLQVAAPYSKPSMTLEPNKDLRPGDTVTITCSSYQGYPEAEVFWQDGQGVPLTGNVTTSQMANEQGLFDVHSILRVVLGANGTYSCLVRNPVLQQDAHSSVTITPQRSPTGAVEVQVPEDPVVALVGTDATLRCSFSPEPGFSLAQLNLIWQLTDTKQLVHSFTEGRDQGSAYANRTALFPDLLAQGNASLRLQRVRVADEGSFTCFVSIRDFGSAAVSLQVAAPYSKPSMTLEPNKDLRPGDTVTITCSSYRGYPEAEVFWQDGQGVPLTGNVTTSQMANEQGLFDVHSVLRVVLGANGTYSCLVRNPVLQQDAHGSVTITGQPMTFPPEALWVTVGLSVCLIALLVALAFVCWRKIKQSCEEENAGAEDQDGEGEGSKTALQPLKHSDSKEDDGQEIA
Briefly: FACS titration on HEK293T cells (the line used for CD276 binding evaluation), GeoMFI (RL1-H); control cell line Jurkat E6-1. How it is done:
as §3

Assay [9] addresses target expressed in cell line for the HER2/CD276 trivalent molecules (HER2 and/or CD276; cell line not named). In words: titration binding FACS, target cell line not named.

Where only a bound is given, the exact number is not on record here.

In general, Kd refers to the equilibrium constant for the complex coming apart. Usually koff stands for a measure of how fast the partners let go of each other. As a reminder, the kon is a measure of how fast the partners come together. A low value points to slower complex formation. By EC50 is commonly meant the concentration at which the effect is half-maximal. Low values mean an effect from little substance, high ones a need for much substance.

B1: CD38-DOTA(fab)-p53_C-Term-HC (bispecific antibody)
light: QAVVIQESALTTPPGETVTLTCGSSTGAVTASNYANWVQEKPDHLFTGLIGGHNNRPPGVPARFSGSLIGDKAALTIAGTQTEDEAIYFCALWYSDHWVIGGGTRLTVLGQPKANPTVTLFPPSSEELQANKATLVCLISDFYPGAVTVAWKADGSPVKAGVETTKPSKQSNNKYAASSYLSLTPEQWKSHRSYSCQVTHEGSTVEKTVAPTECS
heavy: HVKLQESGPGLVQPSQSLSLTCTVSGFSLTDYGVHWVRQSPGKGLEWLGVIWSGGGTAYNTALISRLNIYRDNSKNQVFLEMNSLQAEDTAMYYCARRGSYPYNYFDAWGRGTTVTVSSASTKGPSVFPLAPSSKSTSGGTAALGCLVKDYFPEPVTVSWNSGALTSGVHTFPAVLQSSGLYSLSSVVTVPSSSLGTQTYICNVNHKPSNTKVDKKVEPKSCGGGGSGGGGSGGGGSGGGGGSDVQLQESGGGLVQAGGSLRLSCTGSGRTFRNYPMAWFRQAPGKEREFVAGITWVGASTLYADFAKGRFTISRDNAKNTVYLQMNSLKPEDTAVYSCAAGRGIVAGRIPAEYADWGQGTQVTVSSGGGGSGGGGSKPLDGEYFTLQIRGRERFEMFRELNEALELKDAQAGKEPGGS
notes: VHH C-terminal of the Fab heavy chain, before p53; also called YM00014; molecule 13
In assay [1], B1 returned a Kd of 1.33 nM, a dissociation rate constant (koff) of 7.59e-05 s⁻¹ and a kon of 57000 M⁻¹ s⁻¹. In assay [2], this molecule displayed a Kd of 0.163 nM, a koff of 1.52e-05 s⁻¹ and a kon of 93300 M⁻¹ s⁻¹. In assay [3], this molecule displayed an EC50 of 2.36 nM.

B2: CD38 (bivalent)-DOTA(Fab)-p53 (bispecific antibody)
light: DVQLQESGGGLVQAGGSLRLSCTGSGRTFRNYPMAWFRQAPGKEREFVAGITWVGASTLYADFAKGRFTISRDNAKNTVYLQMNSLKPEDTAVYSCAAGRGIVAGRIPAEYADWGQGTQVTVSSGGGGSGGGGSGGGGSGGGGGSQAVVIQESALTTPPGETVTLTCGSSTGAVTASNYANWVQEKPDHLFTGLIGGHNNRPPGVPARFSGSLIGDKAALTIAGTQTEDEAIYFCALWYSDHWVIGGGTRLTVLGQPKANPTVTLFPPSSEELQANKATLVCLISDFYPGAVTVAWKADGSPVKAGVETTKPSKQSNNKYAASSYLSLTPEQWKSHRSYSCQVTHEGSTVEKTVAPTECS
heavy: DVQLQESGGGLVQAGGSLRLSCTGSGRTFRNYPMAWFRQAPGKEREFVAGITWVGASTLYADFAKGRFTISRDNAKNTVYLQMNSLKPEDTAVYSCAAGRGIVAGRIPAEYADWGQGTQVTVSSGGGGSGGGGSGGGGSGGGGGSHVKLQESGPGLVQPSQSLSLTCTVSGFSLTDYGVHWVRQSPGKGLEWLGVIWSGGGTAYNTALISRLNIYRDNSKNQVFLEMNSLQAEDTAMYYCARRGSYPYNYFDAWGRGTTVTVSSASTKGPSVFPLAPSSKSTSGGTAALGCLVKDYFPEPVTVSWNSGALTSGVHTFPAVLQSSGLYSLSSVVTVPSSSLGTQTYICNVNHKPSNTKVDKKVEPKSCGGGGSGGGGSKPLDGEYFTLQIRGRERFEMFRELNEALELKDAQAGKEPGGS
notes: Two identical CD38 VHHs, one on each Fab chain; has the p53 tetramerization domain; also called YM00004; molecule 3
As to B2, the Kd was 2.77 nM in assay [1] and below 0.000826 nM in assay [4]. Besides, the koff was 0.00012 s⁻¹ in [1] and below 1e-07 s⁻¹ in assay [6]. Also, the kon in assay [1] is 43200 M⁻¹ s⁻¹; in [5] it was 121000 M⁻¹ s⁻¹. In assay [3], this molecule came in with an EC50 of 3.45 nM.

B3: CD38-DOTA(fab)-dp53 (bispecific antibody)
light: B2 light
heavy: HVKLQESGPGLVQPSQSLSLTCTVSGFSLTDYGVHWVRQSPGKGLEWLGVIWSGGGTAYNTALISRLNIYRDNSKNQVFLEMNSLQAEDTAMYYCARRGSYPYNYFDAWGRGTTVTVSSASTKGPSVFPLAPSSKSTSGGTAALGCLVKDYFPEPVTVSWNSGALTSGVHTFPAVLQSSGLYSLSSVVTVPSSSLGTQTYICNVNHKPSNTKVDKKVEPKSCGGHHHHHH
notes: No tetramerization domain; also called YM00017; molecule 15
In [7], B3 registered a dissociation constant Kd of 0.316 nM, a koff of 0.000148 s⁻¹ and a kon of 470000 M⁻¹ s⁻¹. The molecule further registered an EC50 in assay [3] of 1.07 nM.

B4: HER2/CD276_23F11-DOTA(humanized fab)-p53 (bispecific antibody)
light: QVQLQESGGGSVQAGGSLKLTCAASGYIFNSCGMGWYRQSPGRERELVSRISGDGDTWHKESVKGRFTISQDNVKKTLYLQMNSLKPEDTAVYFCAVCYNLETYWGQGTQVTVSSGGGSGGGSGGGSGGGGSQAVVTQEPSLTVSPGGTVTLTCGSSTGAVTASNYANWVQQKPGQAPRGLIGGHNNRPPGVPARFSGSLLGGKAALTLLGAQPEDEAEYYCALWYSDHWVIGGGTKLTVLGQPKANPTVTLFPPSSEELQANKATLVCLISDFYPGAVTVAWKADGSPVKAGVETTKPSKQSNNKYAASSYLSLTPEQWKSHRSYSCQVTHEGSTVEKTVAPTECS
heavy: QVQLVESGGGLVQAGGSLRLSCAASGRTFSRQVMGWFRQAPGKERAFVAAISGSGGTTMYAGSVKGRFTISKDNAKNMVYLQMNSLKPEDTAVYYCNTVTPYDSWGQGTQVTVSSGGGGSGGGGSGGGGSGGGGGSHVQLVESGGGLVQPGGSLRLSCAASGFSLTDYGVHWVRQAPGKGLEWLGVIWSGGGTAYNTALISRFTISRDNSKNTLYLQMNSLRAEDTAVYYCARRGSYPYNYFDAWGQGTLVTVSSASTKGPSVFPLAPSSKSTSGGTAALGCLVKDYFPEPVTVSWNSGALTSGVHTFPAVLQSSGLYSLSSVVTVPSSSLGTQTYICNVNHKPSNTKVDKKVEPKSCGGGGSGGGGSKPLDGEYFTLQIRGRERFEMFRELNEALELKDAQAGKEPGGSGGAP
notes: Three specificities (HER2 VHH, CD276 VHH, humanized DOTA Fab); also called YM00053; molecule 17
B4: in assay [8], the binding result was “binds”. Besides, the EC50 in [9] worked out at 12.4 nM.

B5: HER2/CD276_23A04-DOTA(humanized fab)-p53 (bispecific antibody)
light: B4 light
heavy: QVQLVESGGGLVQSGDSLRLSCGWSGRTFSGYAMGWFRKAPGKDYEFVAAISVSETKTRYADSIRGRFTISRDNAKNTVYLQMNSLKPEDTAVYYCAASRSGVVGGREPTRYNYWGQGTQVTVSSGGGGSGGGGSGGGGSGGGGGSHVQLVESGGGLVQPGGSLRLSCAASGFSLTDYGVHWVRQAPGKGLEWLGVIWSGGGTAYNTALISRFTISRDNSKNTLYLQMNSLRAEDTAVYYCARRGSYPYNYFDAWGQGTLVTVSSASTKGPSVFPLAPSSKSTSGGTAALGCLVKDYFPEPVTVSWNSGALTSGVHTFPAVLQSSGLYSLSSVVTVPSSSLGTQTYICNVNHKPSNTKVDKKVEPKSCGGGGSGGGGSKPLDGEYFTLQIRGRERFEMFRELNEALELKDAQAGKEPGGSGGAP
notes: Three specificities (HER2 VHH, CD276 VHH, humanized DOTA Fab); also called YM00052; molecule 18
For the molecule B5, the binding result in [8] was “binds”. The EC50 in assay [9] stood at 90.2 nM.

(Values after patent US20260166185A1 (Y MABS THERAPEUTICS, published 2026).)
